Reference: patent US20250163166A1 (REGENECORE BIOTECH, published 2025)
Changes are numbered by the printed parent chain.

T1: human recombinant CD123 protein (human, UniProt P26951 19-300)
T1 construct: range 19-300
T1 sequence (looked up): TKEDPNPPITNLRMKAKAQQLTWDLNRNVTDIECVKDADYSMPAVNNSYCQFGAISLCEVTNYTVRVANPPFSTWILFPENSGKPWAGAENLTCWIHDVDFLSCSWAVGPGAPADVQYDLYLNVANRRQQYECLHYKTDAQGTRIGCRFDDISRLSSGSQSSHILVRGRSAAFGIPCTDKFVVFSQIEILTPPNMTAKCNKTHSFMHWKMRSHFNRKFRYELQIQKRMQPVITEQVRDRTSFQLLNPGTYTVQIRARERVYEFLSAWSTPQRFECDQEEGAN

B1: bispecific antibody BM#26 against CD33 and CD123 (bispecific antibody, human IgG1)
chain 1: QVQLVESGGGSVQAGGSLRLSCAASGYTYSSTCIGWFRQAPGKDREGVAFAYTGGGVTYADSVKGRFTISQDNAKNTVHLIMNSLKPEDTAMYYCAAKTRGGCWAAAAFYNYWGQGTQVTVSSEPKSCDKTHTCPPCPAPELLGGPSVFLFPPKPKDTLMISRTPEVTCVVVDVSHEDPEVKFNWYVDGVEVHNAKTKPREEQYNSTYRVVSVLTVLHQDWLNGKEYKCKVSNKALPAPIEKTISKAKGQPREPQVYTLPPSRKKLTKNQVSLTCLVKGFYPSDIAVEWESNGQPENNYKTTPPVLVSDGSFTLYSKLTVDKSRWQQGNVFSCSVMHEALHNHYTQKSLSLSPGK
chain 2: QVQLVESGGGSVQAGGSLKLSCAASRFIFSRCGMGWFRQAPGKERELVSTISGDGTTFYADSVKGRFTISQHNAATTLYLQMNSLKLEDTAVYYCAADCYNRKYWGQGTQVTVSSEPKSCDKTHTCPPCPAPELLGGPSVFLFPPKPKDTLMISRTPEVTCVVVDVSHEDPEVKFNWYVDGVEVHNAKTKPREEQYNSTYRVVSVLTVLHQDWLNGKEYKCKVSNKALPAPIEKTISKAKGQPREPQVYTLPPSRDELTKNQVSLTCLVEGFYPSDIAVEWESNGQPENNYKTTPPVLDSDGSFFLYSWLTVDKSRWQQGNVFSCSVMHEALHNHYTQESLSLSPGK
notes: VHH-Fc heterodimer
B2: bispecific antibody BM#29 against CD33 and CD123 (bispecific antibody, human IgG1)
chain 1: B1 chain 1 with Q255R, K265E, V307D, T313F, Y315A
chain 2: B1 chain 2 with K260D, E270K, W309V
notes: VHH-Fc heterodimer; also called BM-RT2831-#29
B3: bispecific antibody BM#36 against CD33 and CD123 (bispecific antibody, human IgG1)
chain 1: not shown
chain 2: B1 chain 2 with E270K, T294S, V297A, F305A, Y307V, W309K, E339K
notes: VHH-Fc heterodimer
B4: bispecific antibody BM#30 against CD33 and CD123 (bispecific antibody, human IgG1)
chain 1: B1 chain 1 with Q255R, K264D, V307D, T313F, Y315A
chain 2: B1 chain 2 with K260D, W309V, E339K
notes: VHH-Fc heterodimer; also called BM-RT2831-#30
B5: bispecific antibody BM#27 against CD33 and CD123 (bispecific antibody, human IgG1)
chain 1: B1 chain 1 with K265D
chain 2: B1 chain 2 with E270Y
notes: VHH-Fc heterodimer; also called BM-RT2831-#27
B6: bispecific antibody BM#32 against CD33 and CD123 (bispecific antibody, human IgG1)
chain 1: B1 chain 1 with Q255R, K264D, K265D, V307D, T313F, Y315A
chain 2: B1 chain 2 with K260D, E270Y, W309V, E339K
notes: VHH-Fc heterodimer; also called BM-RT2831-#32
B7: bispecific antibody BM#28 against CD33 and CD123 (bispecific antibody, human IgG1)
chain 1: B1 chain 1 with K265D, V307K, T313F
chain 2: B1 chain 2 with E270Y, W309D
notes: VHH-Fc heterodimer
B8: anti-CD123 single domain antibody (VHH)
VHH: QVQLVESGGGSVQAGGSLKLSCAASRFIFSRCGMGWFRQAPGKERELVSTISGDGTTFYADSVKGRFTISQHNAATTLYLQMNSLKLEDTAVYYCAADCYNRKYWGQGTQVTVSS
notes: Tested as crude extract from the pMECS clone and detected through an HA tag; also called second VHH

Target: T2, human FCγRIIIa receptor (human, UniProt P08637 17-208, limits assumed)
T2 construct: Used in solution as the 'antigen' in BLI; also called FcγIIIa receptor
Assay: BLI; Ratio against the hIgG (hIgG1) control, fits KD(hIgG)/KD(sample)
Experimental: (§1) (3) Preparation of antigen working solution: 200 nM antigen (FCγRIIIa) in SD buffer was first prepared at and then serially diluted in 2 folds to prepare a total of 5 concentration gradients, in addition to which a zero concentration was prepared.
(§2) (11) Data analysis: related constants, such as KD, Kon, Koff, X2, Full R2 and the like were calculated in Data Analysis software.
(§3) In the examples of the present application, the modified bispecific antibody was subjected to BLI test to determine the affinity of the modified bispecific antibody to human FCγRIIIa.

T2 sequence (P08637 17-208 limits assumed): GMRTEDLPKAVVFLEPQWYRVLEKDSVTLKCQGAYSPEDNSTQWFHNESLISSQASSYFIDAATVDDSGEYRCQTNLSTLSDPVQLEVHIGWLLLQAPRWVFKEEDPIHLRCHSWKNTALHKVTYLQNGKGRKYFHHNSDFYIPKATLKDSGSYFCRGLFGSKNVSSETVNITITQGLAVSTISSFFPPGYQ

Row | Binder | Ratio
1 | B1 | 1.15
2 | B2 | 1.2
3 | B3 | 1.38
4 | B4 | 1.27
5 | B5 | 0.91
6 | B6 | 1.17
7 | B7 | 1.45

Target: T2, human FCγRIIIa receptor
Assay: BLI (Octet 96), antibody loaded on sensor, FCγRIIIa 200 nM and 2-fold dilutions in solution
Experimental: as §1, §2, §3

Row | Binder | Kd
8 | B1 | 76.9 nM
9 | B2 | 73.9 nM
10 | B3 | 64.2 nM
11 | B4 | 69.6 nM
12 | B5 | 96.9 nM
13 | B6 | 76 nM
14 | B7 | 61.3 nM

Target: T1, human recombinant CD123 protein
Assay: ELISA of crude antibody extract on coated antigen, anti-HA detection; positive clone if OD450 is more than 5 times the control
Experimental: 2. CD33 protein or CD123 protein was diluted into 100 mM NaHCO₃ at pH 8.3. An ELISA plate was coated with 100 μg CD33 protein at 4° C. overnight. The next day, […] BSA-Biotin protein was added to the ELISA plate.
3. 100 μL of crude antibody extract obtained in the above step was transferred to the ELISA plate into which the antigen was added, and incubated at room temperature for 1 h.

Row | Binder | binding result
15 | B8 | binds
